B1: 3C6 hu-5 (Fc fusion)
chain: EVQLVESGGGLIQPGGSLRLSCAASGNIGSIRHMGWHRQAPGKERELVSTITTVGTTYYANFVKGRFTISRDNSKNTLYLQMNSLRAEDTAVYYCRATAHPTDYWGQGTLVTVSSGGGGSGGGGSDKTHTCPPCPAPEAAGAPSVFLFPPKPKDTLMISRTPEVTCVVVDVSHEDPEVKFNWYVDGVEVHNAKTKPREEQYNSTYRVVSVLTVLHQDWLNGKEYKCAVSNKALPAPIEKTISKAKGQPREPQVYTLPPSRDELTKNQVSLTCLVKGFYPSDIAVEWESNGQPENNYKTTPPVLDSDGSFFLYSKLTVDKSRWQQGNVFSCSVMHEALHNHYTQKSLSLSP
notes: Humanized VHH-Fc antibody: VHH, linker, human IgG1 Fc
B2: 3C6 hu-1 (Fc fusion)
chain: EVQLVESGGGLIQPGGSLRLSCAASGNIGSIRHMGWVRQAPGKGLEWVSTITTVGTTYYANFVKGRFTISRDNSKNTLYLQMNSLRAEDTAVYYCRATAHPTDYWGQGTLVTVSSGGGGSGGGGSDKTHTCPPCPAPEAAGAPSVFLFPPKPKDTLMISRTPEVTCVVVDVSHEDPEVKFNWYVDGVEVHNAKTKPREEQYNSTYRVVSVLTVLHQDWLNGKEYKCAVSNKALPAPIEKTISKAKGQPREPQVYTLPPSRDELTKNQVSLTCLVKGFYPSDIAVEWESNGQPENNYKTTPPVLDSDGSFFLYSKLTVDKSRWQQGNVFSCSVMHEALHNHYTQKSLSLSP
notes: as for B1
B3: 3C6 hu-2 (Fc fusion)
chain: EVQLVESGGGLIQPGGSLRLSCAASGNIGSIRHMGWHRQAPGKGLELVSTITTVGTTYYANFVKGRFTISRDNSKNTLYLQMNSLRAEDTAVYYCRATAHPTDYWGQGTLVTVSSGGGGSGGGGSDKTHTCPPCPAPEAAGAPSVFLFPPKPKDTLMISRTPEVTCVVVDVSHEDPEVKFNWYVDGVEVHNAKTKPREEQYNSTYRVVSVLTVLHQDWLNGKEYKCAVSNKALPAPIEKTISKAKGQPREPQVYTLPPSRDELTKNQVSLTCLVKGFYPSDIAVEWESNGQPENNYKTTPPVLDSDGSFFLYSKLTVDKSRWQQGNVFSCSVMHEALHNHYTQKSLSLSP
notes: as for B1
B4: 3C6 hu-3 (Fc fusion)
chain: EVQLVESGGGLIQPGGSLRLSCAASGNIGSIRHMGWHRQAPGKELELVSTITTVGTTYYANFVKGRFTISRDNSKNTLYLQMNSLRAEDTAVYYCRATAHPTDYWGQGTLVTVSSGGGGSGGGGSDKTHTCPPCPAPEAAGAPSVFLFPPKPKDTLMISRTPEVTCVVVDVSHEDPEVKFNWYVDGVEVHNAKTKPREEQYNSTYRVVSVLTVLHQDWLNGKEYKCAVSNKALPAPIEKTISKAKGQPREPQVYTLPPSRDELTKNQVSLTCLVKGFYPSDIAVEWESNGQPENNYKTTPPVLDSDGSFFLYSKLTVDKSRWQQGNVFSCSVMHEALHNHYTQKSLSLSP
notes: as for B1
B5: 3C6 hu-4 (Fc fusion)
chain: EVQLVESGGGLIQPGGSLRLSCAASGNIGSIRHMGWHRQAPGKGRELVSTITTVGTTYYANFVKGRFTISRDNSKNTLYLQMNSLRAEDTAVYYCRATAHPTDYWGQGTLVTVSSGGGGSGGGGSDKTHTCPPCPAPEAAGAPSVFLFPPKPKDTLMISRTPEVTCVVVDVSHEDPEVKFNWYVDGVEVHNAKTKPREEQYNSTYRVVSVLTVLHQDWLNGKEYKCAVSNKALPAPIEKTISKAKGQPREPQVYTLPPSRDELTKNQVSLTCLVKGFYPSDIAVEWESNGQPENNYKTTPPVLDSDGSFFLYSKLTVDKSRWQQGNVFSCSVMHEALHNHYTQKSLSLSP
notes: as for B1
B6: 3C6 hu-6 (Fc fusion)
chain: EVQLVESGGGLIQPGGSLRLSCAASGNIGSIRHMGWHRQAPGKERELVATITTVGTTYYANFVKGRFTISRDNSKNTLYLQMNSLRAEDTAVYYCRATAHPTDYWGQGTLVTVSSGGGGSGGGGSDKTHTCPPCPAPEAAGAPSVFLFPPKPKDTLMISRTPEVTCVVVDVSHEDPEVKFNWYVDGVEVHNAKTKPREEQYNSTYRVVSVLTVLHQDWLNGKEYKCAVSNKALPAPIEKTISKAKGQPREPQVYTLPPSRDELTKNQVSLTCLVKGFYPSDIAVEWESNGQPENNYKTTPPVLDSDGSFFLYSKLTVDKSRWQQGNVFSCSVMHEALHNHYTQKSLSLSP
notes: as for B1
B7: 3C6 hu-7 (Fc fusion)
chain: EVQLVESGGGLIQPGGSLRLSCAASGNIGSIRHMGWHRQAPGKEREWVATITTVGTTYYANFVKGRFTISRDNSKNTLYLQMNSLRAEDTAVYYCRATAHPTDYWGQGTLVTVSSGGGGSGGGGSDKTHTCPPCPAPEAAGAPSVFLFPPKPKDTLMISRTPEVTCVVVDVSHEDPEVKFNWYVDGVEVHNAKTKPREEQYNSTYRVVSVLTVLHQDWLNGKEYKCAVSNKALPAPIEKTISKAKGQPREPQVYTLPPSRDELTKNQVSLTCLVKGFYPSDIAVEWESNGQPENNYKTTPPVLDSDGSFFLYSKLTVDKSRWQQGNVFSCSVMHEALHNHYTQKSLSLSP
notes: as for B1
B8: 3C6 hu-8 (Fc fusion)
chain: EVQLVESGGGLIQPGGSLRLSCAASGNIGSIRHMGWVRQAPGKERELVATITTVGTTYYANFVKGRFTISRDNSKNTLYLQMNSLRAEDTAVYYCRATAHPTDYWGQGTLVTVSSGGGGSGGGGSDKTHTCPPCPAPEAAGAPSVFLFPPKPKDTLMISRTPEVTCVVVDVSHEDPEVKFNWYVDGVEVHNAKTKPREEQYNSTYRVVSVLTVLHQDWLNGKEYKCAVSNKALPAPIEKTISKAKGQPREPQVYTLPPSRDELTKNQVSLTCLVKGFYPSDIAVEWESNGQPENNYKTTPPVLDSDGSFFLYSKLTVDKSRWQQGNVFSCSVMHEALHNHYTQKSLSLSP
notes: as for B1
B9: 4A7 hu-5 (Fc fusion)
chain: EVQLLESGGGLVQPGGSLRLSCAASGRTFSTNVMGWFRQAPGKGLEFVSAISRAGSTYSADSVKGRFTISRDNSKNTLYLQMNSLRAEDTAVYYCAAGSSPTAIFGKSGMDYWGQGTQVTVSSGGGGSGGGGSDKTHTCPPCPAPEAAGAPSVFLFPPKPKDTLMISRTPEVTCVVVDVSHEDPEVKFNWYVDGVEVHNAKTKPREEQYNSTYRVVSVLTVLHQDWLNGKEYKCAVSNKALPAPIEKTISKAKGQPREPQVYTLPPSRDELTKNQVSLTCLVKGFYPSDIAVEWESNGQPENNYKTTPPVLDSDGSFFLYSKLTVDKSRWQQGNVFSCSVMHEALHNHYTQKSLSLSP
notes: Humanized VHH-Fc antibody
B10: 4A7 hu-1 (Fc fusion)
chain: EVQLLESGGGLVQPGGSLRLSCAASGRTFSTNVMSWVRQAPGKGLEWVSAISRAGSTYYADSVKGRFTISRDNSKNTLYLQMNSLRAEDTAVYYCAAGSSPTAIFGKSGMDYWGQGTQVTVSSGGGGSGGGGSDKTHTCPPCPAPEAAGAPSVFLFPPKPKDTLMISRTPEVTCVVVDVSHEDPEVKFNWYVDGVEVHNAKTKPREEQYNSTYRVVSVLTVLHQDWLNGKEYKCAVSNKALPAPIEKTISKAKGQPREPQVYTLPPSRDELTKNQVSLTCLVKGFYPSDIAVEWESNGQPENNYKTTPPVLDSDGSFFLYSKLTVDKSRWQQGNVFSCSVMHEALHNHYTQKSLSLSP
notes: Humanized VHH-Fc antibody
B11: 4A7 hu-2 (Fc fusion)
chain: EVQLLESGGGLVQPGGSLRLSCAASGRTFSTNVMGWVRQAPGKGLEWVSAISRAGSTYSADSVKGRFTISRDNSKNTLYLQMNSLRAEDTAVYYCAAGSSPTAIFGKSGMDYWGQGTQVTVSSGGGGSGGGGSDKTHTCPPCPAPEAAGAPSVFLFPPKPKDTLMISRTPEVTCVVVDVSHEDPEVKFNWYVDGVEVHNAKTKPREEQYNSTYRVVSVLTVLHQDWLNGKEYKCAVSNKALPAPIEKTISKAKGQPREPQVYTLPPSRDELTKNQVSLTCLVKGFYPSDIAVEWESNGQPENNYKTTPPVLDSDGSFFLYSKLTVDKSRWQQGNVFSCSVMHEALHNHYTQKSLSLSP
notes: Humanized VHH-Fc antibody
B12: alpaca nanobody 3C6 (VHH)
VHH: EVQLVESGGGLVQAGESLRLSCAVSGNIGSIRHMGWHRQDPGKERELVATITTVGTTYYANFVKGRFTISRDNAKNTVYLQMNSLKPEDTGVYYCRATAHPTDYWGQGTQVTVSS
notes: also called anti-MSLN nanobody 3C6

Key:
[1] = target: T1, hFc-tagged human MSLN recombinant protein (huMSLN-hFc, Kactus Biosystems, MSL-HM280) (human, UniProt Q13421 296-580); test: Carterra HC30M chip, antibody captured via anti-DYKDDDDK, antigen as analyte
T1 construct: Bought protein; also called huMSLN-Fc; human MSLN-Fc
Experimental: (§1) The anti-[…] antibody was bound to the HC30M chip via amino coupling, and then 2 μg/mL of MSLN single-domain antibody was captured. After the baseline was stabilized, gradient diluted huMSLN-Fc (Kactus Biosystems, MSL-HM280) and cynoMSLN-Fc (Kactus Biosystems, MSL-CM280) (starting from 100 nM, gradient dilution) were flowed through the chip from low to high concentrations, respectively, with a binding time of 8 minutes and a dissociation time of 20 minutes. Kinetic constants were obtained by fitting with Carteria software.

[2] = target: T2, cynoMSLN-Fc (Kactus Biosystems, MSL-CM280) (cyno (monkey)); test: as above
T2 construct: Bought protein; also called monkey MSLN
Experimental: as §1

[3] = target: T3, human PD-L1 protein (ACRO, PD1-H5258) (human, UniProt Q9NZQ7 19-238); test: Carterra HC30M chip, antibody captured via anti-DYKDDDDK, PD-L1 as analyte
T3 construct: Bought protein; also called Human PDL1-Fc
Experimental: (§2) The anti-[…] antibody was bound to the HC30M chip via amino coupling, then 2 μg/mL of humanized PD-L1 single-domain antibody was captured. […] Kinetic constants were obtained by fitting with Carteria software.

[4] = target: T4, monkey PD-L1 protein (Kactus Biosystems, PDL-CM210) (monkey); test: as above
T4 construct: Bought protein; also called Monkey PDL1-Fc
Experimental: as §2

[5] = target: T5, mouse PD-L1 protein (ACRO, PD1-M5251) (mouse, UniProt Q9EP73 19-238); test: as above
T5 construct: Bought protein; also called Mouse PDL1-Fc
Experimental: as §2

T1 sequence (Q13421 other isoform, or with tags, fused parts or gaps): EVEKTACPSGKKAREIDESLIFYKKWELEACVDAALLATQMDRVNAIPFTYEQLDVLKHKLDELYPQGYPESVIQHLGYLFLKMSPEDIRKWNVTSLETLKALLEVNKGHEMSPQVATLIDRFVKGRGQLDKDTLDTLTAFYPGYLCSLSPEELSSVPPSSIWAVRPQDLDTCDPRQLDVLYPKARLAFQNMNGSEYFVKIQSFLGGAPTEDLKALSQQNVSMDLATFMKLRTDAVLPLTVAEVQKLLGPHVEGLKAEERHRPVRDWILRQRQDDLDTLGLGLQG
T5 sequence (Q9EP73 19-238): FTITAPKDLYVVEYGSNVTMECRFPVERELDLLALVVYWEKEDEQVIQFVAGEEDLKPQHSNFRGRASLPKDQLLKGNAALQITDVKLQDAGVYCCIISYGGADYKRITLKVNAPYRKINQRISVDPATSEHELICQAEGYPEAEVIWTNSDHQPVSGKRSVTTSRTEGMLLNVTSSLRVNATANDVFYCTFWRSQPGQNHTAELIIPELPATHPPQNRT
T3 sequence (Q9NZQ7 19-238): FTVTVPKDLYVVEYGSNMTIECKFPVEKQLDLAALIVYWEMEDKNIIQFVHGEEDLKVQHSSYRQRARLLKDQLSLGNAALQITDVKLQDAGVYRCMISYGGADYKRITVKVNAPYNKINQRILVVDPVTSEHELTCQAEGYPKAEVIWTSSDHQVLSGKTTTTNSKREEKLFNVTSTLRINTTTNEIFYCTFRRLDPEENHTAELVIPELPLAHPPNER

Row | Kd [1] [nM] | koff [1] [s⁻¹] | kon [1] [M⁻¹ s⁻¹] | Kd [2] [nM] | koff [2] [s⁻¹] | kon [2] [M⁻¹ s⁻¹] | Kd [3] [nM] | Kd [4] [nM] | Kd [5] [nM] | Binder
1 | 2.26 | 0.00175 | 772000 | 1.66 | 0.000914 | 551000 | – | – | – | B1
2 | 2.69 | 0.00187 | 695000 | 3.67 | 0.00151 | 412000 | – | – | – | B2
3 | 13.5 | 0.00732 | 540000 | 11.4 | 0.00426 | 374000 | – | – | – | B3
4 | 3.56 | 0.00218 | 611000 | 2.74 | 0.00125 | 455000 | – | – | – | B4
5 | 4.89 | 0.00471 | 963000 | 5.58 | 0.00285 | 511000 | – | – | – | B5
6 | 2.25 | 0.00185 | 820000 | 1.78 | 0.00115 | 644000 | – | – | – | B6
7 | 4.94 | 0.00277 | 560000 | 4.79 | 0.00244 | 510000 | – | – | – | B7
8 | 12 | 0.0315 | 2.63e+06 | 17.3 | 0.0165 | 956000 | – | – | – | B8
9 | – | – | – | – | – | – | 141 | 94.3 | 9.72 | B9
10 | – | – | – | – | – | – | – | 1320 | 143 | B10
11 | – | – | – | – | – | – | – | 367 | 408 | B11
12 | 5.66 | 0.000304 | 53600 | 1.04 | 4.69e-05 | 45300 | – | – | – | B12

Reference: US20260201058A1 (SICHUAN HUIYU PHARMACEUTICAL, published 2026)
